Assay results published in paper PMC6008332, “Nuclear PTEN safeguards pre-mRNA splicing to link Golgi apparatus for its tumor suppressive role” (Nature Communications, 2018).

Assays:
Details in all cases: both partners purified
[1] = target: T1, GST-tagged U2AF2 on the human proteome microarray (human, UniProt P26368 1-475); assay: peptide or protein array; human proteome microarray of 20,240 N-terminally GST-tagged proteins probed with 5 μg/5 ml Biotin-labeled His-PTEN, 1 h room temperature; Cy5-conjugated streptavidin; cutoff SNR ≥3 and fold change ≥5
T1 construct: U2AF2 spotted on the human proteome microarray; also called U2AF2 (HPM); source: bought: human proteome microarray (ProtoArray Human Protein Microarray, Wayen Biotechnologies); not shown: GST, N-terminal, kept

[2] = target: T2, GST-tagged SF3B4 on the human proteome microarray (human, UniProt Q15427 1-424); assay: as above
T2 construct: SF3B4 spotted on the human proteome microarray; also called SF3B4 (HPM); source: bought: human proteome microarray (ProtoArray Human Protein Microarray, Wayen Biotechnologies); not shown: GST, N-terminal, kept
T2 sequence (looked up): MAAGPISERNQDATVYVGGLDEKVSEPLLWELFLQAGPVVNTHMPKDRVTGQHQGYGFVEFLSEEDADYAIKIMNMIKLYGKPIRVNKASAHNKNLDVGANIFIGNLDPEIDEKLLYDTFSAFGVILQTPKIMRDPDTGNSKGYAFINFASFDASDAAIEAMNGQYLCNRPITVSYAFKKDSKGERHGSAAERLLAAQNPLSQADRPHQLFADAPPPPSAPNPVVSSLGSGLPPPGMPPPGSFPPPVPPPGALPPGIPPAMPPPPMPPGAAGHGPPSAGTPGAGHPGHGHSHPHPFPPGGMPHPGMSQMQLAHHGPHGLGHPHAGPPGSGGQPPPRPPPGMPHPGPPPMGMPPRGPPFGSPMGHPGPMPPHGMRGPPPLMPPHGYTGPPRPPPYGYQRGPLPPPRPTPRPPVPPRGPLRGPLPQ

[3] = target: T3, GST-tagged HNRNPK on the human proteome microarray (human, UniProt P61978 1-463); assay: as above
T3 construct: HNRNPK spotted on the human proteome microarray; also called HNRNPK (HPM); source: bought: human proteome microarray (ProtoArray Human Protein Microarray, Wayen Biotechnologies); not shown: GST, N-terminal, kept

[4] = target: T4, GST-tagged USP7 (HAUSP7) on the human proteome microarray (human, UniProt Q93009 1-1102); assay: as above
T4 construct: USP7 spotted on the human proteome microarray; source: bought: human proteome microarray (ProtoArray Human Protein Microarray, Wayen Biotechnologies); not shown: GST, N-terminal, kept

[5] = target: T5, GST-tagged APC3 (CDC27) on the human proteome microarray (human, UniProt P30260 1-824); assay: as above
T5 construct: APC3 (CDC27) spotted on the human proteome microarray; source: bought: human proteome microarray (ProtoArray Human Protein Microarray, Wayen Biotechnologies); not shown: GST, N-terminal, kept

[6] = target: T6, GST-tagged HNRNPU on the human proteome microarray (human, UniProt Q00839 1-825); assay: as above
T6 construct: HNRNPU spotted on the human proteome microarray; also called HNRNPU (HPM); source: bought: human proteome microarray (ProtoArray Human Protein Microarray, Wayen Biotechnologies); not shown: GST, N-terminal, kept

His-tagged U2AF2 = target: T7, His-tagged U2AF2 (UniProt P26368 1-475); assay: pull-down; 15 μg His-tagged U2AF2 mixed with 4 μg GST or GST-PTEN bound to glutathione-sepharose beads in 0.5 ml binding buffer, overnight at 4 °C; immunoblot for His and GST
T7 construct: Recombinant full-length U2AF2; also called His-U2AF2; source: E. coli (pET-28a), purified (nickel chelating, ion exchange, gel filtration)

Measured: binding result

B1: Biotin-labeled His-PTEN (natural protein)
chain: not shown
modifications: biotin (sites not given)
notes: Recombinant full-length PTEN; also called biotinylated PTEN protein; PTEN−biotin conjugates; source: E. coli (pET-28a), purified (nickel chelating, ion exchange, gel filtration), labeled with biotin
not listed: His-tagged U2AF2
binds: all other assays above

B2: GST-tagged PTEN (natural protein)
chain: not shown
notes: PTEN CDS inserted into the pEGX-4T-3 vector (so in the source); also called GST-PTEN
binds: His-tagged U2AF2
